Molecular target: T1, BamCDE complex (E. coli, UniProt P0A903 25-344; P0AC02 20-245; P0A937 20-113)
T1 construct: BamC, lipoprotein of the E. coli BAM complex; BamD, lipoprotein of the E. coli BAM complex; BamE, lipoprotein of the E. coli BAM complex; Unlabelled; also called BamCDE sub-complex; BamCDE subcomplex; copies: + +
Assay: SEC; equimolar combination of the detergent solubilized proteins, mild rotation 1 h at 4 °C, then gel filtration on HiLoad 26/600 Superdex 200 pg
Details: both partners purified

binding result: binds
B1: BamAP4P5 (D264–W810) (domain or fragment)
chain: not shown
notes: BamA of E. coli, POTRA domains P4 and P5 plus the transmembrane β-barrel, residues D264–W810 (547 residues); Isotope labelled (AVLTI 13C/15N, or 13C-Ile, 13C-Phe and 15N-Gly) for the ssNMR samples; also called BamP4P5

— publication PMC6175958, “Formation of the β-barrel assembly machinery complex in lipid bilayers as seen by solid-state NMR” (Nature Communications, 2018)
